Source: patent US20250122267A1

Molecular target: serum TGFβ1 of the treated mice (mouse) (UniProt P04202)
Assay: cell-based or functional assay

Chain of UniProt P04202 (P04202 279-390 limits assumed): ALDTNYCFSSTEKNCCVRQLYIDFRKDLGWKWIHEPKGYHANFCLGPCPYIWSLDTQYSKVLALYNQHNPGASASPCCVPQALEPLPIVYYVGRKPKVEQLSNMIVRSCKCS

**Q.** For “sTGFbR2-Fc(igg2Ae), fusion of the mouse TGFbR2 extracellular domain with the mouse igg domain (Fc fusion)”, which serum TGFβ1 after administration of the AAV encoding the soluble receptor (FIG. 2, TGFb1 knockdown versus dosage) is on record?
**A.** < 95%
